Reference: paper PMC5531834
pKd: −log10 of the molar value.

Legend:
[1] = target: Gag (Human immunodeficiency virus 1) (UniProt O93182); details: cited from earlier work
[2] = test system: 8N-Gag (Δp6) (HIV-1); experiment: FCS Cy5 quenching, competition; details: 20 mM Tris-HCl pH 7.5, 0.2 M NaCl (varied in salt titrations), 5 mM MgCl2, 1 uM ZnCl2, 0.1 mM PMSF, 1 mM BME, 0.05% Tween 20; 15 nM RNA; overnight 4 C, FCS at …
[3] = test system: WT-Gag (HIV-1 Δp6 Gag) (HIV-1); experiment: FCS Cy5 quenching, competition; details: 20 mM Tris-HCl pH 7.5, 0.2 M NaCl (varied in salt titrations), 5 mM MgCl2, 1 uM ZnCl2, 0.1 mM PMSF, 1 mM BME, 0.05% Tween 20; 15 nM RNA; overnight 4 C, FCS at …
[4] = test system: 8N-Gag (Δp6) (HIV-1); experiment: FCS Cy5 quenching; details: 20 mM Tris-HCl pH 7.5, 0.2 M NaCl (varied in salt titrations), 5 mM MgCl2, 1 uM ZnCl2, 0.1 mM PMSF, 1 mM BME, 0.05% Tween 20; 15 nM RNA; overnight 4 C, FCS at …
[5] = test system: 8N-Gag (Δp6) (HIV-1); experiment: FCS Cy5 quenching; details: 20 mM Tris-HCl pH 7.5, 0.2 M NaCl (varied in salt titrations), 5 mM MgCl2, 1 uM ZnCl2, 0.1 mM PMSF, 1 mM BME, 0.05% Tween 20; 15 nM RNA; overnight 4 C, FCS at …; remark: listed apart in the source
[6] = test system: WT-Gag (HIV-1 Δp6 Gag) (HIV-1); experiment: FCS Cy5 quenching; details: 20 mM Tris-HCl pH 7.5, 0.2 M NaCl (varied in salt titrations), 5 mM MgCl2, 1 uM ZnCl2, 0.1 mM PMSF, 1 mM BME, 0.05% Tween 20; 15 nM RNA; overnight 4 C, FCS at …
[7] = test system: WT-Gag (HIV-1 Δp6 Gag) (HIV-1); experiment: FCS Cy5 quenching; details: 20 mM Tris-HCl pH 7.5, 0.2 M NaCl (varied in salt titrations), 5 mM MgCl2, 1 uM ZnCl2, 0.1 mM PMSF, 1 mM BME, 0.05% Tween 20; 15 nM RNA; overnight 4 C, FCS at …; remark: listed apart in the source

Sequence of Gag (O93182 2-500): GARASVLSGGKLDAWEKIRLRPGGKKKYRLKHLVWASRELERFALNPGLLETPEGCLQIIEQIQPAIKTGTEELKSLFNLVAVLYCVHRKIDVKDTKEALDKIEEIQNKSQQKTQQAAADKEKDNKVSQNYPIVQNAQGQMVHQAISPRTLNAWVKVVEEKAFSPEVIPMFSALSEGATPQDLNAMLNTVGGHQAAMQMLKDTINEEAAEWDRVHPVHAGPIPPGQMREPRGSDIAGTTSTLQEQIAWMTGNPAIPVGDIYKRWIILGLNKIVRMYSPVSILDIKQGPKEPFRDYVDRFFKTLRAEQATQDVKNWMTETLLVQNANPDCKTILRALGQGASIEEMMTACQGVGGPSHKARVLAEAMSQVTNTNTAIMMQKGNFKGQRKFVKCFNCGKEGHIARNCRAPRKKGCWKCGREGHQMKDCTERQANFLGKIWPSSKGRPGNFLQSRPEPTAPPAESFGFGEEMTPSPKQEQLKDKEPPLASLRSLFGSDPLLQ

## Gag (from UniProt O93182)
[1]
  pKd: 5.00

## GRPE RNA
[2]
  pKd: 6.81
[3]
  pKd: 6.50
[4]
  pKd: < 6.00
[5]
  pKd: 6.84
[6]
  pKd: 7.35

## MoMLV Ψ RNA
[2]
  pKd: 7.23
[3]
  pKd: 6.93
[5]
  pKd: 7.22
[6]
  pKd: 7.59

## HIV Ψ2 (dimeric HIV-1 Ψ RNA)
[2]
  pKd: 7.26
[3]
  pKd: 7.43
[4]
  pKd: < 6.00
[5]
  pKd: 7.36
[6]
  pKd: 7.69

## HIV Ψ1 (monomeric HIV-1 Ψ RNA)
[2]
  pKd: 7.22
[3]
  pKd: 7.27
[7]
  pKd: 7.59
[5]
  pKd: 7.22
[6]
  pKd: 7.67
